Experimental data taken from patent US20240216513A1, “FATTY ACID-BIFUNCTIONAL DEGRADER CONJUGATES AND THEIR METHODS OF USE” (Novartis AG, priority 2021, published 2024).
Read-outs that look alike come from different tables or passages of the source. Marks after values point to notes of the source that are not given here.

Assays:
[1] = In vivo pharmacokinetic study in mice (i.v. or s.c.), FAC and payload in blood; set-up: species or system mouse; conditions: for AUC: male, C57/B16, whole blood
Description: (§1) Pharmacokinetic studies were conducted in male C57/B16 mice; male Sprague-Dawley rats; male Beagle dogs and male Cynomolgus monkeys. 3 animals per group were used for each study performed. All studies were performed in accordance with local animal welfare regulations.
[…] Serial 30 µL blood samples were collected via venipuncture of the tail vein in mouse, and via the cannulated jugular vein in rats at defined timepoints to 216 hours (into EDTA coated tubes).
(§2) Each blood sample was precipitated with acetonitrile containing internal standard; samples were mixed and centrifuged (20 minutes 4000 RPM at 4° C.). Supernatant was transferred to a microwell plate and evaporated under nitrogen at 60° C. Residue was resuspended in acetonitrile/water (7:3 v/v); plate sealed and transferred to an ultrasonic bath for 3 minutes, prior to analysis. Quantification was performed by LC-MS/MS (SciexAP16500 Q-trap, Shimadzu Nexera X2) using a Phenomenex Polar RP analytical column (2.5 μm particle size; 50×2 mm). The mobile phase consisted of solvent A (0.1% formic acid in water) and solvent B (0.1% formic acid in acetonitrile). The fatty acid conjugate and API were detected using multiple reaction monitoring.
(§3) Data analysis and calculation of non-compartmental pharmacokinetic parameters was
(§4) performed using an in-house analysis. Following intravenous administration whole blood clearance was calculated by the dose administered divided by AUC0-inf. Volume of distribution at steady state was calculated as MRT*CL, where MRT is the mean residence time, calculated by AUMC0-inf/AUC0-inf. The half-life (t1/2) of the terminal elimination phase was calculated by 0.693/λ. For both intravenous and subcutaneous administration, the systemic exposures were determined by calculating the area under the blood concentration time curve (AUC) from time zero to the last observed quantifiable concentration (AUClast) by using the linear trapezoidal method and normalised to dose. Extrapolated AUC (AUC0-inf) is calculated by addition of AUClast and AUCtlast-inf; where AUCtlast-inf is calculated based on Clast/λ. The slope of the terminal elimination phase was estimated by linear regression of the terminal data points (minimum 3 points) from a natural log concentration versus time plot of the data. Bioavailability was calculated as the dose normalized ratio of […] AUCinf to intravenous AUCinf (100*[SC AUCinf/SC dose]/[IV AUCinf/IV dose]). Following subcutaneous administration Cmax is calculated as the average maximum observed peak concentration and Tmax is the time associated with the determined Cmax.
For PK experiments, non-tumor bearing mice or rats were treated once (10 mL/kg) with a compound either i.v. or s.c. Serial blood samplings from the tail vein (5-20 μl) were collected during the course of the experiment. For PK/PD experiments in tumor-bearing mice, compound was administered once (10 mL/kg) either i.v. or s.c. Animals were randomized into groups of n=3 and tissue samples were collected at several time points. At the times indicated, animals were anaesthetized by exposure to 2-3% v/v isoflurane in medical oxygen. They were sacrificed without recovering from anesthetic after blood sampling into commercially prepared EDTA coated tubes (Milian, cat #TOM-14C) in order to extract plasma. The tissues were excised, weighted and rapidly frozen in liquid nitrogen. Later, tumors were cryogenic dry pulverized with the CryoPrep™ system (model CP-02, Covaris). For efficacy experiments in ectopic tumor-bearing mice, animals were randomized into groups of n=6 for a mean tumor size of 100 mm^3 and compound was administered either i.v. q3w or s.c. q2w. When implanted in brain, animals were randomized into groups of n=4 for a mean bioluminescence of 1.0-2.0E+06 [p/s]/[ρW/cm^2] and compound was administered i.v. qw. Tumor response were reported with the measures of tumor volumes or bioluminescence from the treatment start. […]

[2] = BTK FAC plasma stability assay, PBS buffer arm; assay type: physicochemical; conditions: for Plasma stability (h) PBS: incubation to 24 h
In short: (§5)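 Compound from a 500 µM acetonitrile:water working solution was spiked into K3-EDTA plasma or Dulbecco's PBS and incubated with shaking at 38 °C. Samples taken at 0, 2, 6 and 24 h were precipitated with cold acetonitrile containing glyburide internal standard. Semi-quantitative LC-MS/MS used analyte:internal standard peak area ratios.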

[3] = BTK FAC plasma stability assay, dog plasma; assay type: in vitro ADME
[4] = BTK FAC plasma stability assay, mouse plasma; assay type: in vitro ADME; conditions: for Plasma stability (h) mouse: incubation to 24 h
In short: as §5

[5] = In vivo pharmacokinetic study in Beagle dogs (i.v. or s.c.), FAC and payload in blood; set-up: species or system dog
Description: as §1
Between 1 and 10 µM/kg FAC was administered either intravenously or subcutaneously as a solution in 10 mM PBS with NaOH (dose volume 0.4 mL/kg in dog and monkey s.c. and 0.2 mL/kg i.v. in monkey). Serial 100 µL blood samples were collected via venipuncture of the cephalic vein at defined timepoints to 336 hours (into EDTA coated tubes).
as §2, §3, §4

[6] = BTK FAC plasma stability assay, rat plasma; assay type: in vitro ADME; conditions: for Plasma stability (h) rat: incubation to 24 h
In short: as §5

[7] = BTK FAC plasma stability assay, cyno plasma; assay type: in vitro ADME, cynomolgus monkey
BTK C481S = biological target: T1, BTK C481S (Homo sapiens, UniProt Q06187, C481S); test: PD screen in TMD8 BTK C481S mutant tumor-bearing mice, BTK levels and compound concentrations in blood and tumor; assay type: in vivo, mouse; conditions: i.v.; 50 umol/kg
T1 construct: endogenous in cells; host or cells: TMD8 BTK C481S mutant tumour xenografts in mice
Description: All animal studies were conducted in accordance with ethics and procedures covered by permit nos. BS-1975 issued by the Kantonales Veterinäramt Basel-Stadt and in strict adherence to guidelines of the Eidgenössisches Tierschutzgesetz and the Eidgenössische Tierschutzverordnung, Switzerland. All animals had access to food and water ad libitum and were identified with transponders. They were housed in a specific pathogen-free facility with a 12-h light/12-h dark cycle. For PD screen experiments in TMD8 BTK C481S mutant tumor-bearing mice, FAC was injected once. Animals were randomized into groups of 2 and tissue samples collected at day 0, 4, 7 and in some studies day 10 as well. Blood samples were collected and tumors were excised, weighed, frozen in liquid nitrogen and cryogenic dry pulverized with the CryoPrep™ system (model CP-02, Covaris). Concentrations of compounds in blood and tumors were determined by UPLC/MS-MS and BTK levels were analyzed by Meso Scale Discovery.

T1 sequence (Q06187 whole entry C481S): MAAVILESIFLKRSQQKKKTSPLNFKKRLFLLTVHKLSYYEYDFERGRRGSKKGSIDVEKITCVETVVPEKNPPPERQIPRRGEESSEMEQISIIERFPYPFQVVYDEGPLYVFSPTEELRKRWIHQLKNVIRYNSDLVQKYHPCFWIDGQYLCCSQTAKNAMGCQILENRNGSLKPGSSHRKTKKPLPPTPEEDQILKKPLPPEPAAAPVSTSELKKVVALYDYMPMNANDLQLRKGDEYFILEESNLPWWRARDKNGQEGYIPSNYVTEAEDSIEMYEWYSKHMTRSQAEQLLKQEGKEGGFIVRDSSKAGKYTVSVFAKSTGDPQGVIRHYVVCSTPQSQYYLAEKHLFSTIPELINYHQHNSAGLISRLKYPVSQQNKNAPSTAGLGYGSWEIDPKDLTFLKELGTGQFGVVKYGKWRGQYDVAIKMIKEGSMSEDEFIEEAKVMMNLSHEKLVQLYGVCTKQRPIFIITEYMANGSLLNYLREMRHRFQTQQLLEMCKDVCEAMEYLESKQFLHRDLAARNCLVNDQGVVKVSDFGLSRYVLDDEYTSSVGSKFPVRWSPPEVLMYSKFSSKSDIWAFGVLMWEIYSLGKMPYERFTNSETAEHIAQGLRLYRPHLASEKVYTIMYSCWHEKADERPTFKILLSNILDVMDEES

Payload C0-uM (unconjugated degrader dosed, first payload cell) ([1]; API i.v., listed as note (20 mg/kg), species taken as mouse) [µM] | AUC ([1]; iv, API i.v., listed as note (20 mg/kg), species taken as mouse, read-out: Payload AUC-uM.h (unconjugated degrader dosed, first payload cell)) [µM·h] | AUC ([1]; sc, mouse, subcutaneous dosing, unconjugated Compound Va at 20 mg/kg, read-out: Payload AUC) [µM·h] | Compound | % Release of degrader after 24 h PBS [2] [%] | Plasma stability (h) PBS [2] [h] | Plasma stability (h) dog [3] [h] | % Release of degrader after 24 h dog [3] [%] | % Release of degrader after 24 h mouse [4] [%] | Plasma stability (h) mouse [4] [h] | C0 ([5]; analyte FAC, FAC i.v. dose 1 umol/kg, read-out: FAC C0-uM dog) [µM] | AUC ([5]; male, Beagle, dog, whole blood, iv, analyte FAC, FAC i.v. dose 1 umol/kg, read-out: FAC AUC-uM.h dog) [µM·h] | C0 ([5]; male, Beagle, whole blood, sc, dog, subcutaneous dosing, FAC s.c. dose 1 umol/kg, read-out: FAC C0) [µM] | % Release of degrader after 24 h rat [6] [%] | Plasma stability (h) rat [6] [h] | Plasma stability (h) cyno [7] [h] | % Release of degrader after 24 h cyno [7] [%] | Duration of BTK degradation in mouse ≥90% (days) (BTK C481S) | Duration of BTK degradation in mouse ≥90% (BTK C481S) [days]
16.7 | 15.2 | 15.2 | COc1ccc(C(=O)N2CCC3(CCN(CCc4ccc(-c5cc6c(-c7cc(F)cc(NC(=O)N8C[C@H](CC(C)C)[C@@H](O)C8)c7C)ncnc6[nH]5)cc4)CC3)CC2)cc1N1CCC(=O)NC1=O [Compound Va, (3R,4S)—N-(3-(6-(4-(2-(9-(3-(2,4-dioxotetrahydropyrimidin-1(2H)-yl)-4-methoxybenzoyl)-3,9-diazaspiro[5.5]undecan-3-yl)ethyl)phenyl)-7H-pyrrolo[2,3-d]pyrimidin-4-yl)-5-fluoro-2-methylphenyl)-3-hydroxy-4-isobutylpyrrolidine-1-carboxamide] | – | – | – | – | – | – | – | – | – | – | – | – | – | – | –
– | – | – | CCCCCCCCCCCN(C(=O)CCCCCCCCCC(=O)O)C(CCC(=O)NCCOCCOCCOCCOCCOCCOCCOCCOCCOCCOCCOCCOCCC(=O)NCC(=O)OC(C)(C)c1ccc(C(=O)Nc2cc(F)cc(-c3ncnc4[nH]c(-c5ccc(CCN6CCC7(CC6)CCN(C(=O)c6ccc(OC)c(N8CCC(=O)NC8=O)c6)CC7)cc5)cc34)c2C)c(F)c1)C(=O)O (stereo not drawn) [Example A1, 50-Carboxy-2-(4-((3-(6-(4-(2-(9-(3-(2,4-dioxotetrahydropyrimidin-1(2H)-yl)-4-methoxybenzoyl)-3,9-diazaspiro[5.5]undecan-3-yl)ethyl)phenyl)-7H-pyrrolo[2,3-d]pyrimidin-4-yl)-5-fluoro-2-methylphenyl)carbamoyl)-3-fluorophenyl)-2-methyl-4,7,47,52-tetraoxo-51-undecyl-3,10,13,16,19,22,25,28,31,34,37,40,43-tridecaoxa-6,46,51-triazadohexacontan-62-oic acid] | 1 | >48 | >48 | 14.6 | 15.1 | 28 | 27.2 | 6.8 | 0.28 | 17.4 | 34.8 | – | – | – | –
– | – | – | CCCCCCCCCCCN(C(=O)CCCCCCCCCC(=O)O)C(CCC(=O)NCCOCCOCCOCCOCCOCCOCCOCCOCCOCCOCCOCCOCCC(=O)N[C@@H](C)CC(=O)OC(C)(C)c1ccc(C(=O)Nc2cc(F)cc(-c3ncnc4[nH]c(-c5ccc(CCN6CCC7(CC6)CCN(C(=O)c6ccc(OC)c(N8CCC(=O)NC8=O)c6)CC7)cc5)cc34)c2C)c(F)c1)C(=O)O (stereo partly drawn) [Example A20, (6S)-51-Carboxy-2-(4-((3-(6-(4-(2-(9-(3-(2,4-dioxotetrahydropyrimidin-1(2H)-yl)-4-methoxybenzoyl)-3,9-diazaspiro[5.5]undecan-3-yl)ethyl)phenyl)-7H-pyrrolo[2,3-d]pyrimidin-4-yl)-5-fluoro-2-methylphenyl)carbamoyl)-3-fluorophenyl)-2,6-dimethyl-4,8,48,53-tetraoxo-52-undecyl-3,11,14,17,20,23,26,29,32,35,38,41,44-tridecaoxa-7,47,52-triazatrihexacontan-63-oic acid] | 0.2 | >48 | >48 | 0.4 | 0.5 | >48 | – | – | – | 0.3 | >48 | >48 | 0.2 | 7* days | –
– | – | – | CCCCCCCCCCCN(C(=O)CCCCCCCCCC(=O)O)C(CCC(=O)NCCOCCOCCOCCOCCOCCOCCOCCOCCOCCOCCOCCOCCC(=O)N1CCC(CC(=O)OC(C)(C)c2ccc(C(=O)Nc3cc(F)cc(-c4ncnc5[nH]c(-c6ccc(CCN7CCC8(CC7)CCN(C(=O)c7ccc(OC)c(N9CCC(=O)NC9=O)c7)CC8)cc6)cc45)c3C)c(F)c2)CC1)C(=O)O (stereo not drawn) [Example A21, 44-Carboxy-1-(4-(2-((2-(4-((3-(6-(4-(2-(9-(3-(2,4-dioxotetrahydropyrimidin-1(2H)-yl)-4-methoxybenzoyl)-3,9-diazaspiro[5.5]undecan-3-yl)ethyl)phenyl)-7H-pyrrolo[2,3-d]pyrimidin-4-yl)-5-fluoro-2-methylphenyl)carbamoyl)-3-fluorophenyl)propan-2-yl)oxy)-2-oxoethyl)piperidin-1-yl)-1,41,46-trioxo-45-undecyl-4,7,10,13,16,19,22,25,28,31,34,37-dodecaoxa-40,45-diazahexapentacontan-56-oic acid] | 0.2 | >48 | >48 | 0.3 | 1.9 | >48 | – | – | – | 0.5 | >48 | >48 | 0.4 | – | <4
